The values below come from patent US20220002389A1 (IMMUNO BIOLOGICAL LABORATORIES, published 2022).

For this experiment, the target named is HIV-1 BaL strain envelope protein (gp120) on BaL-infected CEM.NKR-CCR5 (NKR24) cells (HIV-1 BaL strain). Description: cell-based or functional assay.

B1: Bcell-1C10 (1C10 antibody of B cell origin) (antibody, human IgG1, kappa, V domains shown)
VH: EVQLVESGGGVVQPGRSLRVSCVASGFMFSNYAMHWVRQTAGKGLEWVAIISNDGSDKYYADSVQGRFTVSRDNSQNTLFLQMSGLRPEDSGLYYCARDLDQTIPDLTAPAFEVWGQGTMVTVSS
VL: DIVMTQSPLSLAVTPGEPASISCRSSQSLLHSDGNNYLDWYLQKPGQSPQLLIYLTSNRASGVPDRFSGSGSGTDFTLKISRVEAEDVGVYFCMQSLQTWTFGQGTKVEIKR
On to B1, for which the “IC50 (50% inhibitory concentration) of infection of TZM-bl cells by BaL virus, luciferase RLU; 'Dose at Y = 50'” value amounted to 0.097 µg/mL.

B2: CHO-1C10 (1C10 antibody produced in ExpiCHO-S cells) (antibody, human IgG1, kappa, V domains shown)
VH: B1 VH
VL: B1 VL
modifications: about 70.3% core fucose-added N-glycan
With B2, the “IC50 (50% inhibitory concentration) of infection of TZM-bl cells by BaL virus, luciferase RLU; 'Dose at Y = 50'” value was 0.0781 µg/mL.
